The text below walks through data of US20160339053A1.

This assay deals with recombinant mouse ICAM-1 (mouse) (UniProt P13597). Kind of assay: cell-based or functional assay.
Chain of UniProt P13597 (P13597 28-485 limits assumed): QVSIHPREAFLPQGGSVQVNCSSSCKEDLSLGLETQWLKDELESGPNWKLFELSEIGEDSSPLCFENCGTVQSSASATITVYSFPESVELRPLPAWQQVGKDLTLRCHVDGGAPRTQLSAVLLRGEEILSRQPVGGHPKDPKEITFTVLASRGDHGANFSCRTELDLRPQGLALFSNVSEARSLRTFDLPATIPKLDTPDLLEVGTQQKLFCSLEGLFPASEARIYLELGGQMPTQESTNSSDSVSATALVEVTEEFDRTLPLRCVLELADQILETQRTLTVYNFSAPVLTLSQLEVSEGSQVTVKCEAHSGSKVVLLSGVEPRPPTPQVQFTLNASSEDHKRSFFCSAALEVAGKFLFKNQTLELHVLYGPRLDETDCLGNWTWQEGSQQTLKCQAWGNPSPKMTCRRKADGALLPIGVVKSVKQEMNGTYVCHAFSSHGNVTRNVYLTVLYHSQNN

Consider “LFA-1 on mouse preactivated CD4+ T cells (from UniProt P24063 24-1162; P11835 24-771) (receptor)”, for which the adhesion of WT preactivated CD4+ T cells to ICAM-1-coated plates (percent of input cells) was 10% and the adhesion of WT preactivated CD4+ T cells to ICAM-1-coated plates, fold over basal after CXCL12, CCL21 or anti-CD3 was in the range of 2 to 5 fold.
